The values below come from patent publication US20100150879A1 (published 2010).

For test [1], the target named is T1, β-catenin, endogenous (human, UniProt P35222 2-781).
T1 construct: Endogenous protein from cell extracts; also called beta-catenin
T1 sequence (looked up): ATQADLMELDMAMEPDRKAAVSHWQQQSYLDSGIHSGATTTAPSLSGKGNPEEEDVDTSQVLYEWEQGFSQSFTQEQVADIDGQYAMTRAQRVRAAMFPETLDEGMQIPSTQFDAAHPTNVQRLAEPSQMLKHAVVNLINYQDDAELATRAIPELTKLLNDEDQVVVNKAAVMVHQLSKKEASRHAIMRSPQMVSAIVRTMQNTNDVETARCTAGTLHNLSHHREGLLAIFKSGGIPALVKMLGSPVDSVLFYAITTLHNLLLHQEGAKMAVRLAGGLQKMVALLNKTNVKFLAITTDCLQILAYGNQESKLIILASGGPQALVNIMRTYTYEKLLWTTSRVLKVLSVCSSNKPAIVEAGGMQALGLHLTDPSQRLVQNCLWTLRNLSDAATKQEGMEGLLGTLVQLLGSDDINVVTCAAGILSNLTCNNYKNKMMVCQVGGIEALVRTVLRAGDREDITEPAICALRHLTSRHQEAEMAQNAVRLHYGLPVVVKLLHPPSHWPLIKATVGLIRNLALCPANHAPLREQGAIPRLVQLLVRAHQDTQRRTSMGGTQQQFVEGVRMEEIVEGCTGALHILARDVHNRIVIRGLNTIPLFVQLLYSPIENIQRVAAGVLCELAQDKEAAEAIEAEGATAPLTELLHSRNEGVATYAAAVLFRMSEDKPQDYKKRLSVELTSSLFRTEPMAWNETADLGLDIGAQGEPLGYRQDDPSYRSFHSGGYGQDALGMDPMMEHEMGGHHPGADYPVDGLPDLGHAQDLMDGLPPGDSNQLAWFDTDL
Put plainly: immunoprecipitation and western blot, HEK293 cells expressing HA-LPP3. For orientation: In western blotting, separated proteins are transferred to a membrane and probed.
Experimental: (§1) For immunoprecipitation experiments, cells were rinsed with cold phosphate buffered saline (PBS), pH 7.4 and solubilized with complete cell lysis buffer (50 mM HEPES, pH 7.5; 150 mM NaCl; 1% TRITON X-100; 1 mM calcium chloride; 1 mM magnesium chloride; 1 mM sodium orthovanadate; 25 mM sodium fluoride; 1 mM sodium pyrosphosphate; 1 mM phenylmethylsulfonyl fluoride (PMSF); 10 μg/ml aprotinin; 10 μg/ml leupeptin; 1 μg/ml pepstatin-A) or with modified RIPA buffer (20 mM Tris, pH 7.5; 0.1% SDS; 0.25% sodium deoxycholate; 1% TRITON X-100; 150 mM sodium chloride; 1 mM sodium pyrosphosphate; 25 mM sodium fluoride; 1 mM sodium orthovanadate; 5 mM magnesium chloride; 1 mM calcium chloride; 1 μg/ml pepstatin; 1 mM phenylmethylsulfonyl fluoride; 1 μg/ml leupeptin) at 4° C. for 30 minutes. Cell extracts were centrifuged at ˜21,000×g for 30 minutes at 4° C., pre-adsorbed, and immunoprecipitated using specific antibodies. Immune complexes were washed 4-5 times with lysis buffer or with cold immunoprecipitation wash buffer (50 mM HEPES, pH 7.5; 150 mM NaCl; 0.5% NP-40; 1 mM calcium chloride; 1 mM magnesium chloride). SEPHAROSE-bound immune complexes were boiled in 1× Lammeli reducing sample buffer and resolved by SDS-PAGE.

For test [2], the target named is T2, γ-catenin (plakoglobin), endogenous (human, UniProt P14923 1-745).
T2 construct: Endogenous protein from cell extracts; also called gamma-catenin
T2 sequence (looked up): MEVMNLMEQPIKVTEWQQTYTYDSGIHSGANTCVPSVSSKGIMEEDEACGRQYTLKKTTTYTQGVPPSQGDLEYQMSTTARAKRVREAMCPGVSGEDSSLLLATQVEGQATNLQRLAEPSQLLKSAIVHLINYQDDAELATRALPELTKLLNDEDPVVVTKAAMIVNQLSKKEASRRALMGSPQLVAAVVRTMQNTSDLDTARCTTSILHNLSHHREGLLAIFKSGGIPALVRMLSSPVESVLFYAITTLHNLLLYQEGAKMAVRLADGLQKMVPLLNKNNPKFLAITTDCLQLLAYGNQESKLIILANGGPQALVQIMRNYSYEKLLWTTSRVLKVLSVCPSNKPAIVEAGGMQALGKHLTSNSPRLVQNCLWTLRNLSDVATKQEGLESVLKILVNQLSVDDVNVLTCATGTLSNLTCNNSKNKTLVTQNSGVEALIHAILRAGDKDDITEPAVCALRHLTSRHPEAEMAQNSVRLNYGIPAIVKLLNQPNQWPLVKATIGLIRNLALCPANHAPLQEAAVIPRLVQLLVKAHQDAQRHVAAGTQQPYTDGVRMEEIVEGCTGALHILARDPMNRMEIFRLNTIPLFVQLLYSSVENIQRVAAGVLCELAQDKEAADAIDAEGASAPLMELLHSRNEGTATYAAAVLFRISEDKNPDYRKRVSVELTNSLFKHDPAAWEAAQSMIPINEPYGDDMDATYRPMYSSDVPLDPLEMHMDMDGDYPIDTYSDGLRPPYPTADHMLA
The test is described as above.
Experimental: as §1

Test [3] has as its target T3, VE-cadherin, endogenous in hdMVEC (human, UniProt P33151 48-784).
T3 construct: Endogenous protein from confluent EC extracts
T3 sequence (looked up): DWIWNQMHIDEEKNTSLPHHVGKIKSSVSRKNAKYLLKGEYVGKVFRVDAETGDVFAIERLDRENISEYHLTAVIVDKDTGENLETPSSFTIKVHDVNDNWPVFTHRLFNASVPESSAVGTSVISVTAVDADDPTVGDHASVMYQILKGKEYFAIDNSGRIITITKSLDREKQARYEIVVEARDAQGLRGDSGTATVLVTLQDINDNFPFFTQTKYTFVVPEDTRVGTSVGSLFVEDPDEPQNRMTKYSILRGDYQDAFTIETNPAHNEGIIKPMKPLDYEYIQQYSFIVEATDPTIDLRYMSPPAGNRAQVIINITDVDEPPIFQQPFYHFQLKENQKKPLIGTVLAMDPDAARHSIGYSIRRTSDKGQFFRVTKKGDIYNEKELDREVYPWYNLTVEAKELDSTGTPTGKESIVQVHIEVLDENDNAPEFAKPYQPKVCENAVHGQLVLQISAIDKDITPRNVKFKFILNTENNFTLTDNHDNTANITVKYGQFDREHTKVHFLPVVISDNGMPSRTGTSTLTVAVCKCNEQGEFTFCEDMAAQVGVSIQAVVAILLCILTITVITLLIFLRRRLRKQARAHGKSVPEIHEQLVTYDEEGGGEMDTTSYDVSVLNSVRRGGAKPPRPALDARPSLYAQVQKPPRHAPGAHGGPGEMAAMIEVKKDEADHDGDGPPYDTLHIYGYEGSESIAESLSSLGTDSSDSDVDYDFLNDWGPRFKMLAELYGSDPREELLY
Put plainly: far western, GST-LPP3-C-cyto as bait on blotted immunoprecipitates from hdMVEC.

Test [4] has as its target T1, β-catenin, endogenous. The test is described as above.
Test [5] has as its target T2, γ-catenin (plakoglobin), endogenous. The description is as above.
Test [6] addresses T4, β1-integrin, endogenous in hdMVEC (human, UniProt P05556 21-798).
T4 construct: Immunoprecipitated from hdMVEC extracts and blotted for far western analysis; also called beta1-integrin
Described as above.

Test [7] has as its target T5, p120-catenin (p120ctn), endogenous (human, UniProt O60716 1-968, limits assumed).
T5 construct: Endogenous protein from cell extracts of human cells (hdMVEC, HEK293)
T5 sequence (looked up): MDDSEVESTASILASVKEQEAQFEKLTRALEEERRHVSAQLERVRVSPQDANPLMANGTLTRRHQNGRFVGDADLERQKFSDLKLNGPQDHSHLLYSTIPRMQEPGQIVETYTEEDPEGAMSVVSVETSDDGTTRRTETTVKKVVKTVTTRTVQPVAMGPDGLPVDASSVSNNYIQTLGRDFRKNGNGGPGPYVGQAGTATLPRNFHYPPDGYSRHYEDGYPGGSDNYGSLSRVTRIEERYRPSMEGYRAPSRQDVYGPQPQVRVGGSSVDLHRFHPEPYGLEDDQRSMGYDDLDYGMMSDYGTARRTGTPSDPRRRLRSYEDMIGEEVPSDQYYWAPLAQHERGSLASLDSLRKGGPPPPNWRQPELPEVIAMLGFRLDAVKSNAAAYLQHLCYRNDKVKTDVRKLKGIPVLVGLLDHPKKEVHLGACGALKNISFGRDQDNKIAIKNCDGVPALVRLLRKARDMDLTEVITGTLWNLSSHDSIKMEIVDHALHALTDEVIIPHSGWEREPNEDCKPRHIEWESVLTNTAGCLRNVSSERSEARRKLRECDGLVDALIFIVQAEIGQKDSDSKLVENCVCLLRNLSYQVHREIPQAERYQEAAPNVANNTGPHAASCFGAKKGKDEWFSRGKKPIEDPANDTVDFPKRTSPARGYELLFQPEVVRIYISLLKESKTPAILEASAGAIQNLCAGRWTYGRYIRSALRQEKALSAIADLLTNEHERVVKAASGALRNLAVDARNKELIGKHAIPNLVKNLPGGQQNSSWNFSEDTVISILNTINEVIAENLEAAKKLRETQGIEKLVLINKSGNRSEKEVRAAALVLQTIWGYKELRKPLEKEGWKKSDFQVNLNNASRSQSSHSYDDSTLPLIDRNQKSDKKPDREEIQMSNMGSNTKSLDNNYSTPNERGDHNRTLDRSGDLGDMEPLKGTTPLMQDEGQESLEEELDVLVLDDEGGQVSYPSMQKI
The test is described as follows: GST pull-down.
Experimental: Pull-down assays were also carried out with GST-LPP3 fusion proteins. […] In these experiments, each of the membranes was probed for the presence of the GST-fusion protein.

The target in test [8] is T3, VE-cadherin, endogenous in hdMVEC. Put plainly: co-immunoprecipitation from confluent EC extracts.
Experimental: Biochemical Experiments. For immunoprecipitation experiments, cells were rinsed with cold phosphate buffered saline (PBS), pH 7.4 and solubilized with complete cell lysis buffer (50 mM HEPES, pH 7.5; 150 mM NaCl; 1% TRITON X-100; 1 mM calcium chloride; 1 mM magnesium chloride; 1 mM sodium orthovanadate; 25 mM sodium fluoride; 1 mM sodium pyrosphosphate; 1 mM phenylmethylsulfonyl fluoride (PMSF); 10 μg/ml aprotinin; 10 μg/ml leupeptin; 1 μg/ml pepstatin-A) or with modified RIPA buffer (20 mM Tris, pH 7.5; 0.1% SDS; 0.25% sodium deoxycholate; 1% TRITON X-100; 150 mM sodium chloride; 1 mM sodium pyrosphosphate; 25 mM sodium fluoride; 1 mM sodium orthovanadate; 5 mM magnesium chloride; 1 mM calcium chloride; 1 μg/ml pepstatin; 1 mM phenylmethylsulfonyl fluoride; 1 μg/ml leupeptin) at 4° C. for 30 minutes. Cell extracts were centrifuged at ˜21,000×g for 30 minutes at 4° C., pre-adsorbed, and immunoprecipitated using specific antibodies. Immune complexes were washed 4-5 times with lysis buffer or with cold immunoprecipitation wash buffer (50 mM HEPES, pH 7.5; 150 mM NaCl; 0.5% NP-40; 1 mM calcium chloride; 1 mM magnesium chloride). SEPHAROSE-bound immune complexes were boiled in 1× Lammeli reducing sample buffer and resolved by SDS-PAGE. […]
Test [9] has as its target T1, β-catenin, endogenous. Put plainly: interaction assay in extracts of ECs transfected with LPP3 constructs (method not spelled out).
For test [10], the target named is T1, β-catenin, endogenous. The test is described as follows: co-immunoprecipitation from sub-confluent ECs transfected with FLAG-tagged PTEN.
Experimental: Cell extracts were centrifuged at ˜21,000×g for 30 minutes at 4° C., pre-adsorbed, and immunoprecipitated using specific antibodies. Immune complexes were washed 4-5 times with lysis buffer or with cold immunoprecipitation wash buffer (50 mM HEPES, pH 7.5; 150 mM NaCl; 0.5% NP-40; 1 mM calcium chloride; 1 mM magnesium chloride). SEPHAROSE-bound immune complexes were boiled in 1× Lammeli reducing sample buffer and resolved by SDS-PAGE.
It was initially determined whether PTEN binds to β-catenin in sub-confluent ECs.

No end group written: not given here.

T4 sequence (P05556 21-798): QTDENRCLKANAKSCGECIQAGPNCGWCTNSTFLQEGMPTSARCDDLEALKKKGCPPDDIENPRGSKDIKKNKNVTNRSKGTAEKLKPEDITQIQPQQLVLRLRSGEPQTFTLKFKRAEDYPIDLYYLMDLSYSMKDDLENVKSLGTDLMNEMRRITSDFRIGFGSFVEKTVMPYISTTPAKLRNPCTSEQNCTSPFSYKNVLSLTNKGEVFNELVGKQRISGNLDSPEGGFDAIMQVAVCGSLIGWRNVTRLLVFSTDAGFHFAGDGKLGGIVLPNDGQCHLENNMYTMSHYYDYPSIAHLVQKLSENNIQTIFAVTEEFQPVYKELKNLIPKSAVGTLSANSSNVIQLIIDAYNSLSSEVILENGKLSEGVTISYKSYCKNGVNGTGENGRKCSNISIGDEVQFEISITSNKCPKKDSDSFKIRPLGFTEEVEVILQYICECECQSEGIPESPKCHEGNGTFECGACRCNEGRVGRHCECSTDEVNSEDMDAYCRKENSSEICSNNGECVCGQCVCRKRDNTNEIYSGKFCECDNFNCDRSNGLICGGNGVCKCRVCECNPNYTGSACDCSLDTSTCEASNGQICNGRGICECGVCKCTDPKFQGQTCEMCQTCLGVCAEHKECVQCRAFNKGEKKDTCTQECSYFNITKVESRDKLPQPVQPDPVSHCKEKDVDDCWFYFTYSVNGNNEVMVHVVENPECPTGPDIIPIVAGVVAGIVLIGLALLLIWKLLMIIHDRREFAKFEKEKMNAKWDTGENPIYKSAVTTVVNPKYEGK

B1: HA-tagged human wild-type LPP3 (pLNCX2-HA-WT-hLPP3) (enzyme)
chain: YPYDVPDYAYPYDVPDYAYPYDVPDYAMQNYKYDKAIVPESKNGGSPALNNNPRRSGSKRVLLICLDLFCLFMAGLPFLIIETSTIKPYHRGFYCNDESIKYPLKTGETINDAVLCAVGIVIAILAIITGEFYRIYYLKKSRSTIQNPYVAALYKQVGCFLFGCAISQSFTDIAKVSIGRLRPHFLSVCNPDFSQINCSEGYIQNYRCRGDDSKVQEARKSFFSGHASFSMYTMLYLVLYLQARFTWRGARLLRPLLQFTLIMMAFYTGLSRVSDHKHHPSDVLAGFAQGALVACCIVFFVSDLFKTKTTLSLPAPAIRKEILSPVDIIDRNNHHNMM
notes: whole, on cells; Three copies of the HA tag are fused in-frame at the N-terminus; also called HA-LPP3
In the case of B1, the binding result in test [1] and in test [2] was “no binding” in each case.

B2: GST-LPP3-C-cyto fusion protein (GST fused to the C-terminal cytoplasmic domain of LPP3) (other)
chain: SDLFKTKMTLSLPAPAIRKEILSPVDIIDRNNHHNMM
modifications: also: fused to glutathione-S-transferase (GST), linker not given here
notes: Expressed in E. coli; ran at 32 kDa; also called GST-C-cyto; GST-CC; not shown: glutathione-S-transferase (GST)
Consider B2, for which the binding result in [3], in test [4], in test [5] and in [6] was “no binding (tested: 2.0 µg/ml)” in each case.

B3: GST-N-cyto fusion protein (GST fused to the N-terminal cytoplasmic domain of LPP3) (other)
chain: QNYKYDKAIVPESKNGGSPALNNNPRRSGSK
notes: Expressed in E. coli; not shown: glutathione-S-transferase (GST)
Turning to B3, in test [7], the binding result is “no binding”.

B4: Lipid Phosphate Phosphatase-3 (LPP3), endogenous in human dermal microvascular endothelial cells (enzyme, UniProt O14495 1-311, looked up)
chain: MQNYKYDKAIVPESKNGGSPALNNNPRRSGSKRVLLICLDLFCLFMAGLPFLIIETSTIKPYHRGFYCNDESIKYPLKTGETINDAVLCAVGIVIAILAIITGEFYRIYYLKKSRSTIQNPYVAALYKQVGCFLFGCAISQSFTDIAKVSIGRLRPHFLSVCNPDFSQINCSEGYIQNYRCRGDDSKVQEARKSFFSGHASFSMYTMLYLVLYLQARFTWRGARLLRPLLQFTLIMMAFYTGLSRVSDHKHHPSDVLAGFAQGALVACCIVFFVSDLFKTKTTLSLPAPAIRKEILSPVDIIDRNNHHNMM
notes: Endogenous protein immunoprecipitated from hdMVEC lysates; also called phosphatidic acid phosphatase-2b; PAP2b
Consider B4, for which, in test [8], the binding result is recorded as “no binding”.

B5: Lymphoid Enhancer Binding Factor 1 (LEF-1), endogenous in hdMVEC (other, human, UniProt Q9UJU2 1-399, looked up)
chain: MPQLSGGGGGGGGDPELCATDEMIPFKDEGDPQKEKIFAEISHPEEEGDLADIKSSLVNESEIIPASNGHEVARQAQTSQEPYHDKAREHPDDGKHPDGGLYNKGPSYSSYSGYIMMPNMNNDPYMSNGSLSPPIPRTSNKVPVVQPSHAVHPLTPLITYSDEHFSPGSHPSHIPSDVNSKQGMSRHPPAPDIPTFYPLSPGGVGQITPPLGWQGQPVYPITGGFRQPYPSSLSVDTSMSRFSHHMIPGPPGPHTTGIPHPAIVTPQVKQEHPHTDSDLMHVKPQHEQRKEQEPKRPHIKKPLNAFMLYMKEMRANVVAECTLKESAAINQILGRRWHALSREEQAKYYELARKERQLHMQLYPGWSARDNYGKKKKRKREKLQESASGTGPRMTAAYI
notes: Endogenous protein from EC extracts
On to B5, for which, in test [9], the binding result is reported as “binds”.

B6: FLAG-tagged wild-type PTEN (enzyme)
chain: not shown
notes: Gift construct, transfected into sub-confluent ECs; also called WT-PTEN; not shown: FLAG tag
In the case of B6, the binding result in [10] is listed as “no binding”.
